The source of these data is publication PMC6286387, “Physical and thermodynamic characterization of the rice gibberellin receptor/gibberellin/DELLA protein complex” (Scientific Reports, 2018).

Data set [1] deals with the molecule itself. Put plainly: ITC; dilution series: 10 μl aliquants of 0.4 mM SLR1(M28-A112) into 1.4482 ml of buffer without OsGID1/GA3, 30 °C; dimer to monomers. On the technique in general: Isothermal titration calorimetry measures the heat released or taken up as one component is titrated into another.
For data set [2], the target named is T1, OsGID1 (rice gibberellin receptor GID1), Trx-free, used as the OsGID1/GA3 complex (rice (Oryza sativa), UniProt Q6L545 1-354).
T1 construct: Gibberellin receptor GID1 of rice (Oryza sativa); theoretical MW of the dimer printed as 79.2 kDa; The printed mass (39.6 kDa a monomer) fits the whole protein; source: recombinant, purified
T1 sequence (looked up): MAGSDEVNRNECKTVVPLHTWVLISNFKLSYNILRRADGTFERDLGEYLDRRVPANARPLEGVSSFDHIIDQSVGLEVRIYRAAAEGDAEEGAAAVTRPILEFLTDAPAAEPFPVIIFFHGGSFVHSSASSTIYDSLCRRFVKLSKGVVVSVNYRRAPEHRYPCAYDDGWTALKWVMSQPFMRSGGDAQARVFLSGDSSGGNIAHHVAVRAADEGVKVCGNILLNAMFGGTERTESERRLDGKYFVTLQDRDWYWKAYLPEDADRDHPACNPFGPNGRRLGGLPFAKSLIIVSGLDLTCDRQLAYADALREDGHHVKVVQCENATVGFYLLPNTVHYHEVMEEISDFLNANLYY
The data set is described as follows: ITC; twenty 10 μl injections of 400 μM SLR1(M28-A112) into 50 μM OsGID1/GA3, 30 °C, 20 mM sodium phosphate (pH 7.5), 150 mM NaCl, 2.0 mM β-ME, 0.1 mM GA3. To be noted: both partners purified.

Data set [3] has as its target T1, OsGID1 (rice gibberellin receptor …). The data set is described as follows: ITC; 10 μl aliquants of 400 μM OsGID1/GA3 into 1.4482 ml of 50 μM SLR1 variant, 30 °C, 20 mM sodium phosphate (pH 7.5), 150 mM NaCl, 2.0 mM β-ME, 0.1 mM GA3. The note with it: both partners purified.
The target is the same in data set [4]. Described as above. To be noted: both partners purified. This is another data set of the same source.

B1: SLR1(M28-A112), Trx-free (domain or fragment, rice (Oryza sativa), UniProt Q7G7J6 28-112, looked up)
chain: MAGAAGEEEDVDELLAALGYKVRSSDMADVAQKLEQLEMAMGMGGVSAPGAADDGFVSHLATDTVHYNPSDLSSWVESMLSELNA
notes: DELLA protein SLR1 of rice (Oryza sativa), residues M28-A112; 13C/15N-labelled for the NMR spectra; also called SLR(M28-A112); source: E. coli, purified (HiTrap Chelating, Superdex 200; thrombin, HiTrap Chelating, Superdex 75); not shown: Trx, N-terminal, cleaved; His6, N-terminal, cleaved
The term Kd denotes the equilibrium constant for the complex coming apart. Low values mean higher affinity, high ones lower affinity. What is called stoichiometry N is the number of molecules, sites or subunits per partner or assembly. Molecule B1 had a Kd in data set [1] of 1600 µM. Besides, the dH was -66 kcal/mol in data set [1] and -8.75 kcal/mol in data set [2]. Besides, the Ka in data set [2] amounted to 1.2e+07 M⁻¹; in data set [3] it was 1.1e+07 M⁻¹; in data set [4], 2.9e+07 M⁻¹. The “stoichiometry N” value in data set [2] was 0.88.
